The results in this text go back to the DeepSol protein solubility set.

This series can be described thus: soluble on expression in E. coli; label from the status in PepcDB or PDB records.
On to “MGSDKIHHHHHHMAMTQTENQTAPQQHIRIFDTTLRDGEQSPGVALNHAQKLEIAHTLARMGVDVIEAGFPIASPGDLEGVSRIAREVRGPVITALARANRADIEAAAKGVEAAEKSRIHTFIATSPIHMQKKLNLEPDAVIERAVEAVRLARQYVDDVEFSAEDATRSEWDFLSRIFKAAVEAGATTINVPDTVGYTTPEEMRKLFAYLKAKLPAHVILSSHCHDDLGMAVANSIAAAEGGARQIECTINGIGERAGNASLEEIVMAFHTRRDVYGYETGIRTRELYRASRLVSRLSGMPVQPNKAIVGDNAFAHESGIHQDGVIKARETYEIMNAELVGREAAVLVMGKHSGRAAFRKALTDLGYGDIPDDKVQHLFGRFKDLADRKGQIYAEDLRALVDARSDVPQTFSLEGFQITSGMNMMPVAFVRLHTPDGPVDATAHGDGPVEAAFQAISKITGISPTLESYRIQSVTRGDDALGEVSIHVRHGETQLNGTGVATDIVEASARAWIRVMNMIVAGMGKNKAITQMTP”, for which the “soluble on expression in E. coli” value was “not soluble”.
Under “GMPTLEMPVAAVLDSTVGSSEALPDFTSDRYKDAYSRINAIVIEGEQEAHDNYIAIGTLLPDHVEELKRLAKMEMRHKKGFTACGKNLGVEADMDFAREFFAPLRDNFQTALGQGKTPTCLLIQALLIEAFAISAYHTYIPVSDPFARKITEGVVKDEYTHLNYGEAWLKANLESCREELLEANRENLPLIRRMLDQVAGDAAVLQMDKEDLIEDFLIAYQESLTEIGFNTREITRMAAAALVS” stands “soluble”; under “MGSDKIHHHHHHMSNLSLDFSDNTFQPLAARMRPENLAQYIGQQHLLAAGKPLPRAIEAGHLHSMILWGPPGTGKTTLAEVIARYASADVERISAVTSGVKEIREAIERARQNRNAGRRTILFVDEVHRFNKSQQDAFLPHIEDGTITFIGATTENPSFELNSALLSRARVYLLKSLTTDDIEQVLDQAMQDKTRGYGDQDIVLPDETRRAIAELVNGDARRALNTLEMMADMAEADDSGKRVLLPALLTEIAGERSARFDNKGDRFYDLISALHKSVRGSAPDAALYWYARIITAGGDPLYVARRCLAIASEDVGNADPRAMQVAIAAWDCFTRVGPAEGERAIAQAIVYLACAPKSNAVYTAFKAALADARERPDYDVPVHLRNAPTKLMKEMGYGQEYRYAHDEPNAYAAGEVYFPPEIAQTRYYHPTNRGLEGKIGEKLAWLAEQDQNSPTKRYR”, “not soluble”.
Under “MATESSSPSSVRKVVVHLRATGGAPILKQSKFKIPGTDKFAKVIDFLRRQLHSDSLFVYVNSAFSPNPDESVIDLYNNFGFDGKLVVNYACSMAWG” stands “not soluble”; under “GPGSMASFDMLREDILDVFNVFDEEGTGSISMQELTRAIYTITGTRISRSDLRSLVQAVQEEMKEEAHARKTPLGVDLPPRANSLETSISPNADGENDAVDSSLFVAVVLKTLNRHTYEQELLFTFHLLEDKNYPGFITKDSLKKAAAEMEEHLTDQEVNEMFDKLVTGISSSAVDFTTFTSVLEAAKRMDD”, “soluble”; under “MSLSTDTAPAQTMHAGRLIARRLKASGIDTVFTLSGGHLFSIYDGCREEGIRLIDTRHEQTAAFAAEGWSKVTRVPGVAALTAGPGITNGMSAMAAAQQNQSPLVVLGGRAPALRWGMGSLQEIDHVPFVAPVARFAATAQSAENAGLLVDQALQAAVSAPSGVAFVDFPMDHAFSMSSDNGRPGALTELPAGPTPAGDALDRAAGLLSTAQRPVIMAGTNVWWGHAEAALLRLVEERHIPVLMNGMARGVVPADHRLAFSRARSKALGEADVALIVGVPMDFRLGFGGVFGSTTQLIVADRVEPAREHPRPVAAGLYGDLTATLSALAGSGGTDHQGWIEELATAETMARDLEKAELVDDRIPLHPMRVYAELAALLERDALVVIDAGDFGSYAGRMIDSYLPGCWLDSGPFGCLGSGPGYALAAKLARPQRQVVLLQGDGAFGFSGMEWDTLVRHNVAVVSVIGNNGIWGLEKHPMEALYGYSVVAELRPGTRYDEVVRALGGHGELVSVPAELRPALERAFASGLPAVVNVLTDPSVAYPRRSNEGHHHHHH”, “not soluble”.
The result for “MSLKDTFSVLLIEDSNADYRLIQEYLGESQSPSFQISRSTDFSAGLSFITNESPDLVMLDLSLPDRTGLEALSEIKRKFPQIPVIICSGAEDKDITVNALQIGAQDYVYKGKFDSYSLSRSLVFAYERNRLALELEKKSVFEQESEERYRLFFQYNPHPAFLFEHDSLEILEINRAVLEKYGYEEKDLIGKSILQIFELSDFDKVKQEIIFFQFGANQASSFVHKKKNGEKLIADTTVYKFRYQNQILDLAVVTDITEMVRNRESILATLAEKDALIQEIHHRVKNNMQIMISLLNLQADNAMSRNLTAKELYNLLKDTESRVFSMSLVHNELYKSNDLSHVDFHSYLNMLLENLWNLYGVGLKIKHLVEAQGLVLSMNIAISLGLIVCELVTNAIKHAFPDGYEGLLKIFARCELGSTIVTIEDNGKGIPKEMISKNHETLGLQLVNILTKQIQGKLHLEVLDPGTKFEIRFPEQKGTVQRKEGHHHHHH” reads “not soluble”; that for “MGSDKIHHHHHHMFNESDAPQPPKVLSTPLEIAANLRQLQESHDPLIITFHDRSHRFQSYVVHVDRESNTLALDEMIPRDGEKFIENGEHFRVEGFHDGVRIAWECDHALKISEVDGHRCYSGPLPQEVTYHQRRNAFRAALKLSQLVDIILDGAHLKGNGAMRGKLLDISATGCKLRFEGNVEDRLQLGQVYERFKAGNPLGLVDTMVELRHLHYEERINTTFAGVRFHNLSGQAQRKIESFVYQLQREARRFDKDDY”, “not soluble”.
For the sequence “MGGDRAPDEILKGALLASKEVEGEIVLIGPEEIVKNKGLPFVSASEIVKMDDPPLEVLRKKNSSMHMGLKLLSEGKVDAFVSAGATGPLFLGATSIVGKLEGIERPALGVAVPSLKGATVLIDAGANAKVRPEHLVDFAFMGIAYSKVLGAENPRVGLLNMGSEENKGPDDIKRAYQLLKEFLGDTFFGNVEGHDINLGTVDVVVADGFSGNVALKTMEGTAKLVTSVLKESIKDGGFLSLLGALLMKRSFDKMKEKLDPRSYGGTFILGVKGIVVKAHGSSDAKAIKHAIKVAEKGIRVNIVQEIERGISHVRNSGDGR”, the “soluble on expression in E. coli” value is “soluble”.
With “MGRLSGKTILVTGAASGIGRAALDLFAREGASLVAVDREERLLAEAVAALEAEAIAVVADVSDPKAVEAVFAEALEEFGRLHGVAHFAGVAHSALSWNLPLEAWEKVLRVNLTGSFLVARKAGEVLEEGGSLVLTGSVAGLGAFGLAHYAAGKLGVVGLARTLALELARKGVRVNVLLPGLIQTPMTAGLPPWAWEQEVGASPLGRAGRPEEVAQAALFLLSEESAYITGQALYVDGGRSIVGPPGLPPGFGPKGGERHAHVL”, the “soluble on expression in E. coli” value was “soluble”.
The result for “MVMVLDSLGRALSNALKKIARAGSVDEALVKEVVRDIQRALLQADVNVRLVLKLTKEIQRRALEEKPPAGISKKEHIIKIVYEELTKFLGTEAKPIEIKEKPTVLLTVGVQGSGKTTTVAKLARYFQKRGYKVGVVCSDTWRPGAYHQLKQLLDPYHIEVFGDPNEKDAVKLAKEGVEYFKTRDVDLIIVDTAGRHKEEKDLIEEMRMISEEIRPHEVILVIDGTIGQQAYNQALAFKEATPIGSIIVTKLDSSAKGGGALSAVAATGAPIKFIGVGEKIDDLEPFDPARFVSRLLGLGDIQGLLEKFKELEKEVEFTEEDIDRFLRGKFTLKDMYAQLEAMRKMGPLKQILRMIPGLGYSLPDELISVGEERLRKFKVIMDSMTEEELMNPEIINYSRIKRIARGSGTSIKDVKELLTQYNQMKKFFKSMNKRQLSRLARRFGM” reads “soluble”.
Under “MAKEKARYFTFLLYPESIPSDWELKLETLGVPMAISPLHDKDKSSIKGQKYKKAHYHVLYIAKNPVTADSVRKKIKLLLGEKSLAMVQVVLNVENMYLYLTHESKDAIAKKKHVYDKADIKLINNFDIDRYVTLDVEEKTELFNVVVSLIRAYTLQNIFDLYDFIDENGETYGLTINLVNEVIAGKTGFMKLLFDGAYQRSKRGTKNEER” stands “soluble”; under “MIDVKSIILIVLDGLGDRPGEILGYRTPLQAAYHPNMNRMASLGMTGLMHPISPGIRSGSDTSHMSLLGYDPRVYYQGRGPFEALGLHMDMKPGDLAFRANFATNRDGKIIDRRAGRINAGNDQLASAISIDIGNYKFRVKSGVEHRAALVVSGPNLSDKISDSDPHSEGKPPEPIRPLDPSADSTAKIMNEYLKRIREILRDHPVNVEREKNGQIPGNELLIRSAGKVPDIPSFQEKNGITGACVVGSPWLKGLCRLLGMAVIDVPGAAGTINSNYTGKIKTAIDASKRYDFVLVNIKATDVAGHDGDYELKRRVIEDIDIAMEPLLGQSDRIVVAITGDHSTPCSVKDHSGDPVPIVFYTDGIYSDDVKLFDEVSAMKGALRITTQDVLNILMEMAGRAEKFGS”, “not soluble”.
The result for “MNQNLLVTKRDGSTERINLDKIHRVLDWAAEGLHNVSISQVELRSHIQFYDGIKTSDIHETIIKAAADLISRDAPDYQYLAARLAIFHLRKKAYGQFEPPALYDHVVKMVEMGKYDNHLLEDYTEEEFKQMDTFIDHDRDMTFSYAAVKQLEGKYLVQNRVTGEIYESAQFLYILVAACLFSNYPRETRLQYVKRFYDAVSTFKISLPTPIMSGVRTPTRQFSSCVLIECGDSLDSINATSSAIVKYVSQRAGIGINAGRIRALGSPIRGGEAFHTGCIPFYKHFQTAVKSCSQGGVRGGAATLFYPMWHLEVESLLVLKNNRGVEGNRVRHMDYGVQINKLMYTRLLKGEDITLFSPSDVPGLYDAFFADQEEFERLYTKYEKDDSIRKQRVKAVELFSLMMQERASTGRIYIQNVDHCNTHSPFDPAIAPVRQSNLCLEIALPTKPLNDVNDENGEIALCTLSAFNLGAINNLDELEELAILAVRALDALLDYQDYPIPAAKRGAMGRRTLGIGVINFAYYLAKHGKRYSDGSANNLTHKTFEAIQYYLLKASNELAKEQGACPWFNETTYAKGILPIDTYKKDLDTIANEPLHYDWEALRESIKTHGLRNSTLSALMPSETSSQISNATNGIEPPRGYVSIKASKDGILRQVVPDYEHLHDAYELLWEMPGNDGYLQLVGIMQKFIDQSISANTNYDPSRFPSGKVPMQQLLKDLLTAYKFGVKTLYFQNTRDGAEDAQDDLVPSIQDDGCESGACKI” reads “soluble”; that for “MKLVLFDCDGTLVDSAGLIHAVMSETFADFGKPRPDISETKAIIGLTLDIAIARMLGRAHVDDEAAAMALRYKENYHPLRERFENATPLFDGIASLIDMLSKRDDVLIGAVTGKGRRGLTQILETHGFADHFIVSRTADDCPSKPHPAMVMECCHETGMVPADTIVIGDAIYDMQMAKAAGAKAIGVAWGYASVEDLWKAGADAVVNHPNDIPAYVPADITE”, “not soluble”.
For the sequence “MSLSDAAAVTVVEQTEKRHKLIGYWHNFVNGAGCPIRLADMADAWDVIDIAFAENDRNSDGTVHFNLYSGDIYSDCPALDPTQFKQDMAALQAKGKKFVLSLGGAEGTITLNTDQDEANFVSSLTGLIAEWGFDGLDVDLESGSNLVHGSQIQARLGRALLQIEQNMGGDMYLTMAPEHPYVQGGYVAYSGIWGAYIPVINDTRSTLDLLHVQLYNNGGLPNPYLPSSAPEGSVDMMVAQSKMLIEGFELADGTQFAPLRDDQVAIGLPSGPSSANSGQAPTQNILNALDCLTKGTSCGTVKPAFNYPNYAGVMTWSINWDQHDGFNFSKPVGDKLTQMNAEGHHHHHH”, the “soluble on expression in E. coli” value is “soluble”.
Regarding “IPFPLSAYTHGGEFVRQLDKRILILDGAMGTMIQRYKLGEADFRGERFAEHHKDLKGDNELLSLVRPDVIAEIHRQYLEAGADVIETNTFGATSIAQGDYDLPELAYEMNLESARLARAACDAYSTPEHPRFVAGALGPQPKTASISPDVNDPGARNVTFDELRAAYVEQLNGLLDGGIDIVLIETIFDTLNAKAAIFAVEEAFEARGVRLPVMISGTVTDASGRILSGQTVEAFWNSVRHARPVTIGLNCALGAALMRPYVAELSKICDTYVCVYPNAGLPNPMAETGFDETPADTSALLEEFAQAGLVNMAGGCCGTTPEHIRAIAGKVAALTPRAVPEVPVKTRLSGLEALNIDDETLFVNVGERTNVTGSKMF”, the “soluble on expression in E. coli” value was “not soluble”.
